Test results from PMC8639797 (Nature, 2021).
Changes are numbered by the printed parent chain. Numbers in names are those of the source.

Tests used:
AUC = biological target: the molecule itself; test: AUC
SEC-MALS + AUC = biological target: the molecule itself; test: SEC-MALS + AUC
[1] = biological target: ALK-ECR^ABR−4M (T686A/N787A/Q788A/I795A) (human, UniProt Q9UM73 673-1025, T686A | N787A | Q788A | I795A); test: SEC-MALS + AUC
[2] = biological target: ALK-ECR^ABR (residues 673–1025) (human); test: SEC-MALS

B1: MBP-ALKAL2^C66Y (ligand, human)
chain: AEPREPADGQALLRLVVELVQELRKHHSAEHKGLQLLGRDYALGRAEAAGLGPSPEQRVEIVPRDLRMKDKFLKHLTGPLYFSPKCSKHFHRLYHNTRDCTIPAYYKRCARLLTRLAVSPVCMEDKQ
- Kd (AUC): 38 ± 6 µM

B2: ALK ECR^ABR−4M:ALKAL2^2M 1:1 complex (complex, human)
chain 1: QTPIFDPTVHWLFATCGASGPHGPTQAQCNNAYQNSNLSVEVGSEGPLKGIQIWKVPATDTYSISGYGAAGGKGGKNTMMRSHGVSVLGIFNLEKDDMLYILVGQQGEDACPSTAALIQKVCAGENNVIEEEIRVNRSVHEWAGGGGGGGGATYVFKMKDGVPVPLIIAAGGGGRAYGAKTDTFHPERLENNSSVLGLNGNSGAAGGGGGWNDNTSLLWAGKSLQEGATGGHSCPQAMKKWGWETRGGFGGGGGGCSSGGGGGGYIGGNAASNNDPEMDGEDGVSFISPLGILYTPALKVMEGHGEVNIKHYLNCSHCEVDECHMDPESHKVICFCDHGTVLAEDGVSCIVSP
chain 2: B1 chain with I102A, Y105A
- fold reduction of dimerization to the 2:2 complex against the wild-type complex (SEC-MALS + AUC): 5 fold

B3: ALKAL2^2M (full-size ALKAL2^C66Y with I127A/Y130A) (ligand, human, UniProt Q6UX46 26-152, looked up)
chain: B1 chain with I102A, Y105A
- stoichiometry N [1]: 1

B4: ALK-ECR^ABR–ALKAL2^C66Y 1:1 heterodimeric complex (complex, human)
chain 1: B2 chain 1 with A14T, A115N, A116Q, A123I
chain 2: B1 chain
- Kd (SEC-MALS + AUC): ~3.2 µM

B5: ALKAL2^C66Y (full-size, MBP removed) (ligand, human)
chain: B1 chain
- stoichiometry N [2]: 1
